# Reference: patent publication US20250230224A1
# B1: Hu6F13.4 IgG (antibody, V domains shown)
# VH: QVQLVQSGAEVKKPGASVKVSCKASGYSFTSYWMHWVRQAPGQGLEWIGFINPINGGIIYNEKFRFRATLTVDTSISTAYMELSRLRSDDTAVYYCARAGYYGSSRHFDVWGQGTLLTVSS
# VL: ETTLTQSPSSLSASVGDRVTITCRASQGIRNYLAWYQQKPGKAPKLLIYDASNLETGVPSRFSGSGSGTDFTFTISSLQPEDFATYYCLQTSSTPWTFGQGTKVDIKR
# B2: Hu6F11 IgG (antibody, V domains shown)
# VH: EVQLVESGGGLVKPGGSLRLSCAASGFTFSNYGMSWVRQAPGKGLEWVASISSGGSYIYYPDSVKGRFTISRDNAKNSLYLQMNSLRAEDTAVYYCARRKGYDSLYWYFDVWGQGTLVTVSS
# VL: DVVMTQSPSSLSAFVGDRVTITCRASQGIRSYLAWFQQKPGKAPKLLIYAASTLQSGVPSRFSGSGSGTEFTLTVSGLQPEDFATYYCQQYNSYPLTFGGGTRLEIKR
# B3: 4C4.4 IgG (antibody, V domains shown)
# VH: QVQLQESGPGLVKPSQTLSLTCTVSGASISNSPYFWNWFRQFPGKGLEWIGYIYWSGSTNYNPSLKSRLAMSVDTSKNQFSLKLTSATAADTAVYYCARDQGGGTVVKENWFDPWGQGTLVTVSS
# VL: DIVMTQSPSSLSASVGDRLTMTCQASQDIGKHLNWYQQKAGKPPKLLIYGASNLKTGVPSRFSAGVSWTDFTFTISNVQPEDVATYYCQQSYSTPPTFGQGTKVEIKR
# B4: 8DC4.4 IgG (antibody, V domains shown)
# VH: QVQLQESGPGLVKPSQTLSLTCTVSGGSISSDNYFWTWIRQSPGKGLEWLGHISYSGRSYTNLSLKRRLTISVDTSKNQFSLNLNSVTAADTAVYYCARERLPPGRGYDMDVWGQGTTVTVSS
# VL: DIVMTQSPSSVSASVGDRVTITCRASRDISIYLNWYQQKPGKAPKLLIYAASNLETGVPSRFSGSGSGTDFTLTISSLQPEDVATYYCQQSYNTPLTFGGGTKLEIKR
# B5: 6F5.4 IgG (antibody, V domains shown)
# VH: EVQLVPSGGNLVQPGGSLRLSCAATGPIDYHWMTWVRQAPGQGLEWVANINLDGTEKFYVDSVKGRFTVSRDNRKSSVFLQMNNLRVDDTAVYYCARLQWGERDGWLSPWGQGTLVTVSS
# VL: DIVMTQSPPSLSASVGDRVRLTCRASQSIGRSLNWYQQKPGKAPKLLIYDASALHSGVPSRFSGSGSGTDFTLTISGLQPEDFATYYCQQTNDLPVTFGGGTKLEIKR
# What was measured:
# BoNT/F2 = experiment: KinExA, IgG
# BoNT/F3 = experiment: KinExA, IgG
# BoNT/F4 = experiment: KinExA, IgG
# BoNT/F5 = experiment: KinExA, IgG
# BoNT/F6 = experiment: KinExA, IgG
# BoNT/F7 = experiment: KinExA, IgG
# [1] = biological target: Mosaic botulinum neurotoxin BoNT/CD (Clostridium botulinum); experiment: KinExA flow fluorimetry, solution phase, IgG
# [2] = biological target: Mosaic botulinum neurotoxin BoNT/DC (Clostridium botulinum); experiment: KinExA flow fluorimetry, solution phase, IgG
Binder,Kd (BoNT/F2) [pM],Kd (BoNT/F3) [pM],Kd (BoNT/F4) [pM],Kd (BoNT/F5) [pM],Kd (BoNT/F6) [pM],Kd (BoNT/F7) [pM],Kd [1] [pM],Kd [2] [pM]
B1,216,297,405,17.2,172,206,–,–
B2,28.3,8.03,13.7,21.8,3.7,3.34,–,–
B3,–,–,–,–,–,–,16,87
B4,–,–,–,–,–,–,117,146
B5,0.16,5.19,25.8,5.88,0.4,3.74,–,–
